US20190233495A1 (Sanofi, published 2019)
Non-standard residues stand in square brackets, D forms with d. αMeK = C[C@](N)(CCCCN)C(=O)O; Nle = CCCC[C@H](N)C(=O)O; Aib = CC(C)(N)C(=O)O

T1: RXFP1 receptor (UniProt Q9HBX9 1-757, limits assumed)
T1 sequence (looked up): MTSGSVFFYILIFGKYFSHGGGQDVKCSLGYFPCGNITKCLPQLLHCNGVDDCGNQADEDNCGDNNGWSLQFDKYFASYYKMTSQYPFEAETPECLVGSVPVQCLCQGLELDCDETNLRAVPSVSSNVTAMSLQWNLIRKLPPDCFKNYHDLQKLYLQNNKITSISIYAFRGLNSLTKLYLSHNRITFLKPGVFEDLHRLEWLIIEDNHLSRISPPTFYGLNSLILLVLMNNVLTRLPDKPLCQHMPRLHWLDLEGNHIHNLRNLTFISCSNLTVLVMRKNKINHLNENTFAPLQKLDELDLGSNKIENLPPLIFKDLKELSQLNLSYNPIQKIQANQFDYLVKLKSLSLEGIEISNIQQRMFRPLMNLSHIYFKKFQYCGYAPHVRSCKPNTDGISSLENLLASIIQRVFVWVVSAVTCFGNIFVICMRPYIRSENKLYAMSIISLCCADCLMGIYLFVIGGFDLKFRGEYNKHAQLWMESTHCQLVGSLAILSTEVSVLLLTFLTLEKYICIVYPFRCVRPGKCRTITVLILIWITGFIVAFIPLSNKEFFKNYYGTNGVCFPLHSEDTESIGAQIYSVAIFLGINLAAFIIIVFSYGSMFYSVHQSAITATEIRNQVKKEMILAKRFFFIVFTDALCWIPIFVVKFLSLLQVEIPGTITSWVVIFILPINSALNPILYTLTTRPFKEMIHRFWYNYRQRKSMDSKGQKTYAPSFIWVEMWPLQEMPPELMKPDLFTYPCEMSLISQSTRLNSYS

B1: SEQ ID NO: 23 (peptide)
peptide: Ac-LEGREKVRAQI[Aib][Aib]EG[Nle]STWT[Aib]RKK-NH2
SMILES: CCCC[C@H](NC(=O)CNC(=O)[C@H](CCC(=O)O)NC(=O)C(C)(C)NC(=O)C(C)(C)NC(=O)[C@@H](NC(=O)[C@H](CCC(N)=O)NC(=O)[C@H](C)NC(=O)[C@H](CCCNC(=N)N)NC(=O)[C@@H](NC(=O)[C@H](CCCCN)NC(=O)[C@H](CCC(=O)O)NC(=O)[C@H](CCCNC(=N)N)NC(=O)CNC(=O)[C@H](CCC(=O)O)NC(=O)[C@H](CC(C)C)NC(C)=O)C(C)C)[C@@H](C)CC)C(=O)N[C@@H](CO)C(=O)N[C@H](C(=O)N[C@@H](Cc1c[nH]c2ccccc12)C(=O)N[C@H](C(=O)NC(C)(C)C(=O)N[C@@H](CCCNC(=N)N)C(=O)N[C@@H](CCCCN)C(=O)N[C@@H](CCCCN)C(N)=O)[C@@H](C)O)[C@@H](C)O
B2: SEQ ID NO: 20 (peptide)
peptide: Ac-LEGREKVRA[Aib]I[Aib][Aib]EG[Nle]STWS[αMeK]RKK-NH2
SMILES: CCCC[C@H](NC(=O)CNC(=O)[C@H](CCC(=O)O)NC(=O)C(C)(C)NC(=O)C(C)(C)NC(=O)[C@@H](NC(=O)C(C)(C)NC(=O)[C@H](C)NC(=O)[C@H](CCCNC(=N)N)NC(=O)[C@@H](NC(=O)[C@H](CCCCN)NC(=O)[C@H](CCC(=O)O)NC(=O)[C@H](CCCNC(=N)N)NC(=O)CNC(=O)[C@H](CCC(=O)O)NC(=O)[C@H](CC(C)C)NC(C)=O)C(C)C)[C@@H](C)CC)C(=O)N[C@@H](CO)C(=O)N[C@H](C(=O)N[C@@H](Cc1c[nH]c2ccccc12)C(=O)N[C@@H](CO)C(=O)N[C@@](C)(CCCCN)C(=O)N[C@@H](CCCNC(=N)N)C(=O)N[C@@H](CCCCN)C(=O)N[C@@H](CCCCN)C(N)=O)[C@@H](C)O
B3: SEQ ID NO: 27 (peptide)
peptide: Ac-LEGREKVRAK(Ac)I[Aib][Aib]EG[Nle]STWS[Aib]RKK(Ac)K-NH2
SMILES: CCCC[C@H](NC(=O)CNC(=O)[C@H](CCC(=O)O)NC(=O)C(C)(C)NC(=O)C(C)(C)NC(=O)[C@@H](NC(=O)[C@H](CCCCNC(C)=O)NC(=O)[C@H](C)NC(=O)[C@H](CCCNC(=N)N)NC(=O)[C@@H](NC(=O)[C@H](CCCCN)NC(=O)[C@H](CCC(=O)O)NC(=O)[C@H](CCCNC(=N)N)NC(=O)CNC(=O)[C@H](CCC(=O)O)NC(=O)[C@H](CC(C)C)NC(C)=O)C(C)C)[C@@H](C)CC)C(=O)N[C@@H](CO)C(=O)N[C@H](C(=O)N[C@@H](Cc1c[nH]c2ccccc12)C(=O)N[C@@H](CO)C(=O)NC(C)(C)C(=O)N[C@@H](CCCNC(=N)N)C(=O)N[C@@H](CCCCN)C(=O)N[C@@H](CCCCNC(C)=O)C(=O)N[C@@H](CCCCN)C(N)=O)[C@@H](C)O
B4: SEQ ID NO: 22 (peptide)
peptide: Ac-LEGREKVRAQI[Aib][Aib]EG[Nle]STWA[Aib]RKK-NH2
SMILES: CCCC[C@H](NC(=O)CNC(=O)[C@H](CCC(=O)O)NC(=O)C(C)(C)NC(=O)C(C)(C)NC(=O)[C@@H](NC(=O)[C@H](CCC(N)=O)NC(=O)[C@H](C)NC(=O)[C@H](CCCNC(=N)N)NC(=O)[C@@H](NC(=O)[C@H](CCCCN)NC(=O)[C@H](CCC(=O)O)NC(=O)[C@H](CCCNC(=N)N)NC(=O)CNC(=O)[C@H](CCC(=O)O)NC(=O)[C@H](CC(C)C)NC(C)=O)C(C)C)[C@@H](C)CC)C(=O)N[C@@H](CO)C(=O)N[C@H](C(=O)N[C@@H](Cc1c[nH]c2ccccc12)C(=O)N[C@@H](C)C(=O)NC(C)(C)C(=O)N[C@@H](CCCNC(=N)N)C(=O)N[C@@H](CCCCN)C(=O)N[C@@H](CCCCN)C(N)=O)[C@@H](C)O
B5: SEQ ID NO: 24 (peptide)
peptide: Ac-LEGREKVRAK(Ac)I[Aib][Aib]EG[Nle]STWS[Aib]RKK-NH2
SMILES: CCCC[C@H](NC(=O)CNC(=O)[C@H](CCC(=O)O)NC(=O)C(C)(C)NC(=O)C(C)(C)NC(=O)[C@@H](NC(=O)[C@H](CCCCNC(C)=O)NC(=O)[C@H](C)NC(=O)[C@H](CCCNC(=N)N)NC(=O)[C@@H](NC(=O)[C@H](CCCCN)NC(=O)[C@H](CCC(=O)O)NC(=O)[C@H](CCCNC(=N)N)NC(=O)CNC(=O)[C@H](CCC(=O)O)NC(=O)[C@H](CC(C)C)NC(C)=O)C(C)C)[C@@H](C)CC)C(=O)N[C@@H](CO)C(=O)N[C@H](C(=O)N[C@@H](Cc1c[nH]c2ccccc12)C(=O)N[C@@H](CO)C(=O)NC(C)(C)C(=O)N[C@@H](CCCNC(=N)N)C(=O)N[C@@H](CCCCN)C(=O)N[C@@H](CCCCN)C(N)=O)[C@@H](C)O
B6: SEQ ID NO: 3 (peptide)
peptide: Ac-LEGREKVRAQI[Aib][Aib]EG[Nle]STWS[Aib]RKK-NH2
SMILES: CCCC[C@H](NC(=O)CNC(=O)[C@H](CCC(=O)O)NC(=O)C(C)(C)NC(=O)C(C)(C)NC(=O)[C@@H](NC(=O)[C@H](CCC(N)=O)NC(=O)[C@H](C)NC(=O)[C@H](CCCNC(=N)N)NC(=O)[C@@H](NC(=O)[C@H](CCCCN)NC(=O)[C@H](CCC(=O)O)NC(=O)[C@H](CCCNC(=N)N)NC(=O)CNC(=O)[C@H](CCC(=O)O)NC(=O)[C@H](CC(C)C)NC(C)=O)C(C)C)[C@@H](C)CC)C(=O)N[C@@H](CO)C(=O)N[C@H](C(=O)N[C@@H](Cc1c[nH]c2ccccc12)C(=O)N[C@@H](CO)C(=O)NC(C)(C)C(=O)N[C@@H](CCCNC(=N)N)C(=O)N[C@@H](CCCCN)C(=O)N[C@@H](CCCCN)C(N)=O)[C@@H](C)O
B7: SEQ ID NO: 26 (peptide)
peptide: Ac-LEGREKVRAK(Ac)I[Aib][Aib]EG[Nle]STWSK(Ac)RKKK(Ac)-NH2
SMILES: CCCC[C@H](NC(=O)CNC(=O)[C@H](CCC(=O)O)NC(=O)C(C)(C)NC(=O)C(C)(C)NC(=O)[C@@H](NC(=O)[C@H](CCCCNC(C)=O)NC(=O)[C@H](C)NC(=O)[C@H](CCCNC(=N)N)NC(=O)[C@@H](NC(=O)[C@H](CCCCN)NC(=O)[C@H](CCC(=O)O)NC(=O)[C@H](CCCNC(=N)N)NC(=O)CNC(=O)[C@H](CCC(=O)O)NC(=O)[C@H](CC(C)C)NC(C)=O)C(C)C)[C@@H](C)CC)C(=O)N[C@@H](CO)C(=O)N[C@H](C(=O)N[C@@H](Cc1c[nH]c2ccccc12)C(=O)N[C@@H](CO)C(=O)N[C@@H](CCCCNC(C)=O)C(=O)N[C@@H](CCCNC(=N)N)C(=O)N[C@@H](CCCCN)C(=O)N[C@@H](CCCCN)C(=O)N[C@@H](CCCCNC(C)=O)C(N)=O)[C@@H](C)O
B8: SEQ ID NO: 21 (peptide)
peptide: Ac-LEGREKVRAQI[Aib][Aib]EG[Nle]STWS[Aib]RKK(Ac)-NH2
SMILES: CCCC[C@H](NC(=O)CNC(=O)[C@H](CCC(=O)O)NC(=O)C(C)(C)NC(=O)C(C)(C)NC(=O)[C@@H](NC(=O)[C@H](CCC(N)=O)NC(=O)[C@H](C)NC(=O)[C@H](CCCNC(=N)N)NC(=O)[C@@H](NC(=O)[C@H](CCCCN)NC(=O)[C@H](CCC(=O)O)NC(=O)[C@H](CCCNC(=N)N)NC(=O)CNC(=O)[C@H](CCC(=O)O)NC(=O)[C@H](CC(C)C)NC(C)=O)C(C)C)[C@@H](C)CC)C(=O)N[C@@H](CO)C(=O)N[C@H](C(=O)N[C@@H](Cc1c[nH]c2ccccc12)C(=O)N[C@@H](CO)C(=O)NC(C)(C)C(=O)N[C@@H](CCCNC(=N)N)C(=O)N[C@@H](CCCCN)C(=O)N[C@@H](CCCCNC(C)=O)C(N)=O)[C@@H](C)O
B9: SEQ ID NO: 25 (peptide)
peptide: Ac-LEGREKVRAK(Ac)I[Aib][Aib]EG[Nle]STWSK(Ac)RKKK-NH2
SMILES: CCCC[C@H](NC(=O)CNC(=O)[C@H](CCC(=O)O)NC(=O)C(C)(C)NC(=O)C(C)(C)NC(=O)[C@@H](NC(=O)[C@H](CCCCNC(C)=O)NC(=O)[C@H](C)NC(=O)[C@H](CCCNC(=N)N)NC(=O)[C@@H](NC(=O)[C@H](CCCCN)NC(=O)[C@H](CCC(=O)O)NC(=O)[C@H](CCCNC(=N)N)NC(=O)CNC(=O)[C@H](CCC(=O)O)NC(=O)[C@H](CC(C)C)NC(C)=O)C(C)C)[C@@H](C)CC)C(=O)N[C@@H](CO)C(=O)N[C@H](C(=O)N[C@@H](Cc1c[nH]c2ccccc12)C(=O)N[C@@H](CO)C(=O)N[C@@H](CCCCNC(C)=O)C(=O)N[C@@H](CCCNC(=N)N)C(=O)N[C@@H](CCCCN)C(=O)N[C@@H](CCCCN)C(=O)N[C@@H](CCCCN)C(N)=O)[C@@H](C)O

target: T1, RXFP1 receptor; test: cell-based or functional assay

Q: For B1, which “cAMP assay in OVCAR 5 cells EC50” value is on record?
A: 128 nM

Q: What about the “cAMP assay in OVCAR 5 cells Emax” value of the same binder?
A: 95%

Q: How did the “cAMP assay in OVCAR 5 cells EC50” value turn out when B2 was run?
A: 1.8 nM

Q: And the “cAMP assay in OVCAR 5 cells Emax” value?
A: 97%

Q: With B3 as the binder, how does the “cAMP assay in OVCAR 5 cells EC50” value read?
A: 9.5 nM

Q: And the “cAMP assay in OVCAR 5 cells Emax” value?
A: 95%

Q: For B4, which “cAMP assay in OVCAR 5 cells EC50” value is on record?
A: 57.1 nM

Q: What about the “cAMP assay in OVCAR 5 cells Emax” value of the same binder?
A: 102%

Q: With B5 as the binder, how does the “cAMP assay in OVCAR 5 cells EC50” value read?
A: 47.9 nM

Q: And the “cAMP assay in OVCAR 5 cells Emax” value?
A: 92%

Q: How did the “cAMP assay in OVCAR 5 cells EC50” value turn out when B6 was run?
A: 12 nM

Q: And the “cAMP assay in OVCAR 5 cells Emax” value?
A: 97%

Q: Which “cAMP assay in OVCAR 5 cells EC50” value does the source give for B7 here?
A: 14.5 nM

Q: What about the “cAMP assay in OVCAR 5 cells Emax” value of the same binder?
A: 100%

Q: How did the “cAMP assay in OVCAR 5 cells EC50” value turn out when B8 was run?
A: 32.8 nM

Q: What about the “cAMP assay in OVCAR 5 cells Emax” value of the same binder?
A: 96%

Q: How did the “cAMP assay in OVCAR 5 cells EC50” value turn out when B9 was run?
A: 4.2 nM

Q: What about the “cAMP assay in OVCAR 5 cells Emax” value of the same binder?
A: 100%
